Measured values taken from patent publication US20170275376A1 (Chugai, published 2017).

Legend:
[1] = molecular target: T1, anti-FIXa-arm of ACE910; assay: ELISA, hybridoma culture supernatant
T1 construct: This is inferred from the parallel order 'anti-FIXa/FX' and 'Q499-z121/J327-z119' and from the AQ/AJ antibody names; also called anti-FIXa side; anti-FIXa-F(ab')2
Description: (§1) Mice and rats were immunized with anti-FIXa-F(ab′)2 or anti-FX-F(ab′)2. Cells obtained from the spleen removed from the mice or rats or from rat lymph nodes were subjected to cell fusion with mouse myeloma cells by following general methods to produce the hybridomas. The culture supernatants of the hybridomas were evaluated by ELISA which detects the binding of ACE910 to the anti-FIXa-arm or the anti-FX-arm, and ultimately, mouse antibodies, AQ8 and AQ1, and rat antibody, AQ512, which bind only to the anti-FIXa-arm but not to the anti-FX-arm of ACE910, and rat antibodies, AJ540, AJ114, AJ521, AJ522, and AJ541, which bind only to the anti-FX-arm but not to the anti-FIXa-arm of ACE910 were selected. In addition, the nucleotide sequences of the variable regions of the AQ8 antibody or the AJ540 antibody were analyzed. The nucleotide sequences of the variable regions of AQ8 and AJ540, and amino acid sequences predicted therefrom were analyzed using GENETYX Ver.9 (GENETYX CORPORATION).

[2] = molecular target: T2, anti-FX-arm of ACE910; assay: ELISA, hybridoma culture supernatant
T2 construct: This is inferred from the parallel order 'anti-FIXa/FX' and 'Q499-z121/J327-z119' and from the AQ/AJ antibody names; also called anti-FX side; anti-FX-F(ab')2
Description: as §1

T1 sequence (VH, as listed by the source, chain 1 of 2): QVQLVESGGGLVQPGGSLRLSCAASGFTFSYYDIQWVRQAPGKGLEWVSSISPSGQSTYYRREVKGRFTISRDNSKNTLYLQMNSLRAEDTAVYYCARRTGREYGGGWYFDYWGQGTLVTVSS
T1 sequence (VL, as listed by the source, chain 2 of 2): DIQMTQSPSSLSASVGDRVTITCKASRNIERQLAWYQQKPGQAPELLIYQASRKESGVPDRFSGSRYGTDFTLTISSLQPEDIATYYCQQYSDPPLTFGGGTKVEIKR
T2 sequence (VH, as listed by the source, chain 1 of 2): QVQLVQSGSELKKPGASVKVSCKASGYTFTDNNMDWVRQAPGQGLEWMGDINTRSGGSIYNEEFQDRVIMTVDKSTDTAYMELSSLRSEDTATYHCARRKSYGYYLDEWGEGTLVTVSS
T2 sequence (VL, as listed by the source, chain 2 of 2): as the sequence (VL, as listed by the source, chain 2 of 2) above

binding result [1] | binding result [2] | Binder
no binding | – | rat antibody AJ540 (antibody, V domains shown, Rat hybridoma antibody, tested as culture supernatant in ELISA; also called AJ540 antibody) VH: QIQLVQSGPELKKPGESVKISCKASGYTFTDYAMHWVKQVPGKGLKWMGWINTYTGKPTYADDFKGRFVFSLEASASTANLQISNLKNEDTANVFCAREGGGYYWYFDFWGPGTMVTVSS VL: DIVMTQSPTSMSISVGDRVTMNCKANQNVDFNVDWYQQKTGQSPKLLIYKASNRYTGVPDRFTGSGSGTDFTFTISNMQAEDLAVYYCMQSNSFPLTFGSGTNLEIK
– | no binding | mouse antibody AQ8 (antibody, V domains shown, Mouse hybridoma antibody, tested as culture supernatant in ELISA; also called AQ8 antibody) VH: EVNLVESGGGLVQPGGSMSLSCAASGFTFTDYYMSWVRQPPGKALEWLALIRNKANGYTTEYSASVKGRFTISRDNSQSILYLQMNALRAEDSATYYCARDSYYSYDGYAMDYWGQGTSVTVSS VL: DIQMTQSPASLAASVGETITITCQASENIYFSLAWYQQKQGKSPQLLIYNTDSLKDGVPSRFSGSGSGTQYSMKINSMQPEDTATYFCRQSYDFPWTFGGGTKLEIK
